Measurements from PMC9409550 (PLoS ONE, 2022).

What was measured:
Assay in all cases: flow cytometry on cells
Details in all cases: one partner purified
[1] = target: SARS-CoV-2 Wuhan-Hu-1 RBD, yeast-displayed (SARS-CoV-2, UniProt P0DTC2 330-530)
[2] = target: LYRa11 RBD, yeast-displayed (bat sarbecovirus LYRa11)
[3] = target: Rs4048 RBD, yeast-displayed (bat sarbecovirus Rs4048)
[4] = target: Rs4231 RBD, yeast-displayed (bat sarbecovirus Rs4231)
[5] = target: Rs7327 RBD, yeast-displayed (bat sarbecovirus Rs7327)
[6] = target: RsSHC014 RBD, yeast-displayed (bat sarbecovirus RsSHC014, UniProt U5WLK5 318-517)
[7] = target: RaTG13 RBD, yeast-displayed (bat sarbecovirus RaTG13)
[8] = target: SARS-CoV-1 (Urbani) RBD, yeast-displayed (SARS-CoV-1 (Urbani))

B1: CDY14HL-Fc1 (Fc fusion)
chain: QSTIEEQAKTFLDMFNHKAEDLFYQSSLAAWNYNTNITEENVQNMNNAGDKWSAFLKEQSTFAQMYPLQEIQNPTVKLQLQALQQNGSSVLSEDKSKRLNTILNTMSTIYSTGKVCNPDNPQECLLLEPGLNEIMANSLDYNERLWAWESWRSEVGKQLRPLYEEYVVLKNEMARANHYEDYGDYWRGDYEVNGVDGYDYSRGQLIEDVEHTFEEIKPLYEHLHAYVRAKLMNAYPSYISPIGCLPAHLLGDMWGRFWTNLYSLTVPFGQKPNIDVTDAMVDQAWDAQRIFKEAEKFFVSVGLPNMTQGFWEYSMLTDPGNVQKAVCLPTAWDLGKGDFRILMCTKVTMDDFLTAHHEMGHIQYDMAYAAQPFLLRNGANEGFHEAVGEIMSLSAATPKHLKSIGLLSPDFQEDNETEINFLLKQALTIVGTLPFTYMLEKWRWMVFKGEIPKDQWMKKWWEMKREIVGVVEPVPHDETYCDPASLFHVSNDYSFIRYYTRTLYQFQFQEALCQAAKHEGPLHKCDISNSTEAGQKLFNMLRLGKSEPWTLALENVVGAKNMNVRPLLNYFEPLFTWLKDQNKNSFVGWSTDWSPYAD
[1]
  Kd: 0.14 nM
[2]
  Kd: 0.29 nM
[3]
  Kd: 0.31 nM
[4]
  Kd: 0.3 nM
[5]
  Kd: 0.31 nM
[6]
  Kd: 0.31 nM
[7]
  Kd: 1.4 nM
[8]
  Kd: 0.25 nM
